Holding throughout (assay): high-throughput RNA pulldown from lysate on Ni-NTA beads; HRP: 50 mM Tris pH 8, 150 mM NaCl, 1 mM beta-mercaptoethanol, 50 ug/ml BSA, 3 ug/ml yeast RNA, 0.5% heparin; ITC and FP: Tris pH 8, 200 mM KCl, 5% glycerol; MST: 50 mM Tris pH 8, 200 mM NaCl, 1 mM DTT, BSA, heparin, 0.05% Tween 20
Common to all, as to details: tags: N-terminal His-eGFP

In data set [1] the target is T1, GFP-9S library array, motif 4 ND N98H (synthetic construct, N98H).
T1 chain: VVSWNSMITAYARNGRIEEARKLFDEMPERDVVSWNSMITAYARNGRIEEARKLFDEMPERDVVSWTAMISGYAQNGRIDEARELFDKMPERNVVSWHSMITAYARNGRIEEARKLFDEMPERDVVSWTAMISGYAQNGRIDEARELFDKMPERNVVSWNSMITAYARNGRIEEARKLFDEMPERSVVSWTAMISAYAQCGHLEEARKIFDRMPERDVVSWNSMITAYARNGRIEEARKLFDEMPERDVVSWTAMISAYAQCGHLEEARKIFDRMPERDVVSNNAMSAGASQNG

Data set [2] deals with T2, GFP-9S library array, motif 4 ND N98C;D124C (synthetic construct, N98C;D124C).
T2 chain: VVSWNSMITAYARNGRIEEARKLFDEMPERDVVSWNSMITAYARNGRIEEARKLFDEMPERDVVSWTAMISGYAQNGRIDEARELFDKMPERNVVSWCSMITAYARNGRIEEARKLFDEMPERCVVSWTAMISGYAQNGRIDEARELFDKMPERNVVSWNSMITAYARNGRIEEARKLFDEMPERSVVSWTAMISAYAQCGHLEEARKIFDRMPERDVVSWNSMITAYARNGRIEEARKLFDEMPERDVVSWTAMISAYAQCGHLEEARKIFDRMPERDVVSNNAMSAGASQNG

Data set [3] deals with T3, GFP-9S library array, motif 4 ND N98C;D124F (synthetic construct, N98C;D124F).
T3 chain: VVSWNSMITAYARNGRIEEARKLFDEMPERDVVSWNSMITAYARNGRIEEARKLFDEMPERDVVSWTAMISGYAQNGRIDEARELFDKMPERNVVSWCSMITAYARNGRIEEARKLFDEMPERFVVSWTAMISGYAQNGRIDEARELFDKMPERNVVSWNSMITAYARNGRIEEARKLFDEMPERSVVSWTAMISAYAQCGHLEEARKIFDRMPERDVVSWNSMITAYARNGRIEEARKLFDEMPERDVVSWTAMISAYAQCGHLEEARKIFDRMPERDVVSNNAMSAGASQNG

Data set [4] has as its target T4, GFP-9S library array, motif 4 ND N98E;D124K (synthetic construct, N98E;D124K).
T4 chain: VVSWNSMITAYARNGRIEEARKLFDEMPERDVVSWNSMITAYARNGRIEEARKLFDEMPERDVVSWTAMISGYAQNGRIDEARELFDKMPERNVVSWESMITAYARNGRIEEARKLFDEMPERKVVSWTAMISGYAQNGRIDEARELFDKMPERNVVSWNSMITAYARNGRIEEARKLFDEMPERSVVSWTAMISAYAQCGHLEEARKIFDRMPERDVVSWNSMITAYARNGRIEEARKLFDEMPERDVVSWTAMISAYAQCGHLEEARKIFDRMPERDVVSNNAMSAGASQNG

In data set [5] the target is T5, GFP-9S library array, motif 4 ND N98L;D124S (synthetic construct, N98L;D124S).
T5 chain: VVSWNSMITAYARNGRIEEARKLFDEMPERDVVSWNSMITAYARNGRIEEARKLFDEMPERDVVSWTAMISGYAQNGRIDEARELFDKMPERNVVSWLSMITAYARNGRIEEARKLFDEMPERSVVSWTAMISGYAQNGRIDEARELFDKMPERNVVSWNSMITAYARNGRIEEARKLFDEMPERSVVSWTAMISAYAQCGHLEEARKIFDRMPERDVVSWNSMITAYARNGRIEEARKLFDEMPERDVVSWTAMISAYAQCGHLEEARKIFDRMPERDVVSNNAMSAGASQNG

For orientation: Kd means a measure of binding affinity in units of concentration. A lower Kd goes with tighter binding.

AUUAAACGUGA (ssRNA) [IR-rpoA-A]: the Kd in data set [1] (label: 5' IRDye 800CW) was found to be 465 nM; in data set [2] (label: 5' IRDye 800CW) it was 43.7 nM; in data set [3] (label: 5' IRDye 800CW), 203 nM; in data set [4] (label: 5' IRDye 800CW), 312 nM; in data set [5] (label: 5' IRDye 800CW) it was 120 nM.

In the case of AUUACACGUGA (ssRNA) [Cy5-rpoA], the Kd came to 144 nM in data set [1] (label: 5' Cy5); 264 nM in data set [2] (label: 5' Cy5); 126 nM in data set [3] (label: 5' Cy5); 124 nM in data set [4] (label: 5' Cy5); 139 nM in data set [5] (label: 5' Cy5).

As to AUUAGACGUGA (ssRNA) [Cy5-rpoA-G], the Kd in data set [1] (label: 5' Cy5) amounted to 26.5 nM; in data set [2] (label: 5' Cy5), 70.5 nM; in data set [3] (label: 5' Cy5), 100 nM; in data set [4] (label: 5' Cy5), 155 nM; in data set [5] (label: 5' Cy5), 111 nM.

For AUUAUACGUGA (ssRNA) [IR-rpoA-U], the Kd came out at 65.7 nM in data set [1] (label: 5' IRDye 800CW); 243 nM in data set [2] (label: 5' IRDye 800CW); 317 nM in data set [3] (label: 5' IRDye 800CW); 267 nM in data set [4] (label: 5' IRDye 800CW); 37.2 nM in data set [5] (label: 5' IRDye 800CW).

These data come from article PMC8809517, “Cofactor-independent RNA editing by a synthetic S-type PPR protein”.
